According to publication PMC4600729:

Columns and labels:
[1] = target: taxol-stabilized microtubules (polymer of alpha/beta-tubulin), immobilized; test: single-molecule TIRF microscopy; GFP-labelled motor (25 pM) in 1 mM ATP on immobilized taxol-stabilized microtubules; pause lifetimes at plus ends, exponential fit; BRB80 pH 6.8
[2] = target: taxol-stabilized microtubules (polymer of alpha/beta-tubulin), immobilized; test: single-molecule TIRF microscopy; Kin5_18GFP landing on and dissociating from the lattice of an immobilized microtubule in 1 mM ADP; exponential fit of binding durations
[3] = target: taxol-stabilized microtubules (polymer of alpha/beta-tubulin), immobilized; test: single-molecule TIRF microscopy; spiking experiment, crowded conditions: pM GFP-labelled motor mixed with 15-25 nM unlabelled motor; binding durations at plus ends of taxol-stabilized microtubules

taxol-stabilized microtubules (polymer of alpha/beta-tubulin), immobilized, sequence (P68363 whole entry, chain 1 of 2): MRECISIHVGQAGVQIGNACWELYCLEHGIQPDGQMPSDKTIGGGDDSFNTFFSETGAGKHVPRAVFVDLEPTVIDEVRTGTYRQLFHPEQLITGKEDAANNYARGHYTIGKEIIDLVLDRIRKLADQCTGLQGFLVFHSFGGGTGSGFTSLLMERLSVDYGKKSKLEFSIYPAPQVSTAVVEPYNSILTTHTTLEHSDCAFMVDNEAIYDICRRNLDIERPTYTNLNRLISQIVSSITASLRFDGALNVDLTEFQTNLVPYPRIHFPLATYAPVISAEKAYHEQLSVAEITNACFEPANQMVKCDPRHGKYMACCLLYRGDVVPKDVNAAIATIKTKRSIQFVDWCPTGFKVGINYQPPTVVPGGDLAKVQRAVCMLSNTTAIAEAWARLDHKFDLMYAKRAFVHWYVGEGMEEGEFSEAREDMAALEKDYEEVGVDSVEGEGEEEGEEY
taxol-stabilized microtubules (polymer of alpha/beta-tubulin), immobilized, sequence (A8K068 whole entry, chain 2 of 2, further chain): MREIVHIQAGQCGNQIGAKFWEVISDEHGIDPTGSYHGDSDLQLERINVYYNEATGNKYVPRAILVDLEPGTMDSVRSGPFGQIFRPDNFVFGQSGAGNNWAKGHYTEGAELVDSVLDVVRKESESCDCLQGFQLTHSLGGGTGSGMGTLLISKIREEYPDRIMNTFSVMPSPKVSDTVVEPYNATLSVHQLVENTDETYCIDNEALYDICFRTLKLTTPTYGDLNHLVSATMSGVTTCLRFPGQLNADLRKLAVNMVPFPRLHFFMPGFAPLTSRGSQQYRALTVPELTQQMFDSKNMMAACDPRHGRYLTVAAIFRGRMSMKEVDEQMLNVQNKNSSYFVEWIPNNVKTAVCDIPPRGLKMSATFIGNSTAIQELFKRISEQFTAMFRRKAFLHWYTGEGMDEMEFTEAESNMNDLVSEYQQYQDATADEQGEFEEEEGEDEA

mean pause duration at plus ends [1]: 7 s
mean binding duration on the microtubule lattice in 1 mM ADP [2]: 1.07 s
end duration at plus ends under crowded conditions [3]: 2.26 s
Substance: Kin5_18GFP (dimeric kinesin-5: motor domain and native 18-residue neck linker of Xenopus laevis Eg5 fused to the proximal coiled coil of Drosophila conventional kinesin heavy chain, GFP-tagged)
